Laboratory results published in patent US11479791B2, “Tools and methods for expression of membrane proteins” (VIB VZW, priority 2012, dated 2022).

Assays:
[1] = target: T1, human CXCR4 receptor (hCXCR4Rho1D4) (Homo sapiens, UniProt P61073); test: hCXCR4-Nb co-expression in P. pastoris GS115; anti-Rho1D4 immunoblot of membrane protein, quantified by Odyssey software; type: cell-based; settings: for change of hCXCR4 receptor expression upon Nb co-expression (in words): immunoblot, versus GS115hCXCR4 clone without Nb co-expression
T1 construct: expressed in transfected cells; host or cells: Pichia pastoris GS115
T1 sequence (P61073 with tags, fused parts or gaps isoform P61073-2): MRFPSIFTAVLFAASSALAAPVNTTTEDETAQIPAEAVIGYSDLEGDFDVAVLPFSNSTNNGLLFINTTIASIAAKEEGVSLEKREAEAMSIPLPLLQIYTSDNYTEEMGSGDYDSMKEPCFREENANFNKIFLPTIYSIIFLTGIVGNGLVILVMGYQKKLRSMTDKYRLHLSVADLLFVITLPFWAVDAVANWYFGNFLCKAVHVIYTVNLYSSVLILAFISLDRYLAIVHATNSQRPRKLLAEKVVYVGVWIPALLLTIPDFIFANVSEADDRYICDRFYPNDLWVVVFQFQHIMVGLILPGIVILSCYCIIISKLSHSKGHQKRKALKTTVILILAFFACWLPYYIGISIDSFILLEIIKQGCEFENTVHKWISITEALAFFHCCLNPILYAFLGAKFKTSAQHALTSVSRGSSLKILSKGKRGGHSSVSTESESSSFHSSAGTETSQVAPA
Method: An hCXCR4 expressing Pichia clone was transformed with the four linearized Nanobody expressing vectors as described before. Twenty-four positive clones (six per Nb) were analyzed for protein expression. Growth conditions and membrane protein sample preparations were done as previously described. Equal amounts of total membrane protein (determined by a BCA assay) of induced P. pastoris GS115 clones, expressing only the human CXCR4 receptor, or in combination with one of the anti-hCXCR4 Nanobodies, were run on a 12% SDS-PAGE gel and blotted on a nitrocellulose membrane. The blot was developed with a primary mouse anti-Rho1D4 monoclonal antibody and a secondary Dylight (800 nm) goat anti-mouse IgG on an LI-COR odyssey system. […] The quantification was performed by the Odyssey software by measuring relative fluorescent signals (Table 3).
An hCXCR4 expressing Pichia clone was transformed with the linearized Nanobody expressing vector as described before. Three positive clones were analyzed for protein expression. Growth conditions and membrane protein sample preparations were done as previously described. Equal amounts of total membrane protein (determined by a BCA assay) of induced P. pastoris GS115 clones, expressing only the human CXCR4 receptor, or in combination with a anti-hCXCR4 Nanobody (NbCA4142), or in combination with the negative control Nanobody (NbCA4910), were run on a 12% SDS-PAGE gel and blotted on a nitrocellulose membrane. The blot was developed with a primary mouse anti-Rho1D4 monoclonal antibody and a secondary Dylight (800 nm) goat anti-mouse IgG on an LI-COR odyssey system. For the hCXCR4-specific Nb co-expressing clone we detect more of the anti-Rho1D4 immunoreactive membrane protein band compared to the GS115hCXCR4 clone without Nb co-expression. […] Exact quantification has been calculated by the Odyssey software by measuring relative fluorescent signals (Table 4). It can, thus, be concluded that the increase in receptor expression can be attributed to the Nanobody-specific interaction with the receptor.
Stable positive clones were typically grown in 2 ml (24-well format) or 12.5 ml (shake-flasks) BMGY medium for 48 hours (250 rpm; 28° C.). The cells were harvested by centrifugation and resuspended in the same amount of BMMY medium (1% methanol; 0.5% of methanol was added after 12 hours to maintain induction). After 24 hours the cells were harvested for membrane protein preparations (analysis of hCXCR4 expression and intracellular Nb retention) and the supernatant was used for analysis of extracellular protein expression on SDS-PAGE (Nanobodies).
The cell pellet corresponding to 1 ml of saturated yeast culture (OD600 60-80) was suspended in 1 ml of PBS+Protease inhibitor (Roche). Together with 200 μl of acid washed glass beads, the samples were vortexed heavily at 4° C. for 2×5 minutes. Glass beads, cell debris and intact cells were removed by centrifugation at 2000 rpm (5 min; 4° C.). The supernatant was kept as such or was centrifuged for 45 minutes at 13,000 rpm in a desktop centrifuge at 4° C. The supernatant, cytosolic fraction was discarded and the pellet fraction was re-dissolved in the same amount of fresh PBS+PI by sonication until a homogenous sample was obtained.
Total membrane protein concentration was determined by the BCA protein assay kit (Pierce, Thermo Scientific).
Protein samples were analyzed by SDS-poly-acrylamide gel electrophoresis, according to the Laemmli (Laemmli et al., 1970, Nature, 227:680) or the Tricine method (Schägger et al., 2006, Nat. Protoc. 1:16-22). Before loading on gel, the samples were mixed with 5× Laemmli (60 mM Tris-HCl pH 6.8; 2% SDS, 10% glycerol, 5% β-ME; 0.01% bromophenol blue) and heated for 10 minutes at 95° C. (only the ECM samples, not the membrane protein preparations). Prestained protein markers in the range of 10-250 kDa, Precision Plus protein standards (Bio-Rad), were used as molecular standards. […]

[2] = target: T2, hCXCR4 receptor (Homo sapiens, UniProt P61073); test: Purification of hCXCR4-Nanobody complex from co-expressing P. pastoris clone by Ni2+ affinity chromatography; type: binding; settings: DDM-solubilized membrane protein of co-expressing clone; FIG. 9
T2 construct: made in house; host or cells: Pichia pastoris GS115 co-expressing clone
T2 sequence (P61073 with tags, fused parts or gaps isoform P61073-2): as above
Description: In this way we only purify the receptor fraction that is in a well-folded state, because the Nanobody can only bind the receptor when it is in its native fold. This step strongly increases homogeneity in a membrane protein sample which is useful, for example, for crystallization. […] In case an even more pure sample is required, an extra step of affinity chromatography can be performed using an anti-Rho1D4 affinity matrix, which targets the hCXCR4 part of the complex.
The cell pellet corresponding to 1 L of saturated yeast culture (OD600 60-80) was resuspended in a 1:1 (w/v) ratio of buffer A (1×PBS+Protease inhibitors). Together with 190 g of glass beads, the suspension was brought in the precooled DYNO®-MILL mixing chamber and cells were crushed for 5 minutes. The lysate was centrifuged for 10 minutes at 2,000 rpm (Sorvall F10S-6X500Y rotor) at 4° C. to remove cell debris and intact cells. The supernatant was centrifuged for an hour at 13,000 rpm (Sorvall F10S-6X500Y rotor) at 4° C. to pellet the membrane proteins. The pellet was resuspended in 10 ml buffer A with 1% DDM (n-Dodecyl β-D-maltoside) and put on a rotor for three hours at 4° C. to allow membrane protein solubilization. After solubilization, the solution is centrifuged for one hour at 13,000 rpm (Sorvall SS-34 rotor) at 4° C. to remove unsolubilized membrane proteins. […]

[3] = target: T3, β2-adrenergic receptor (Mesocricetus auratus, UniProt P04274); test: Purification of β2AR-Nanobody complex from HEK293S cells by Ni2+ affinity chromatography; type: binding; settings: upon the addition of the antagonist alprenolol hydrochloride; FIG. 10
T3 construct: expressed in transfected cells
T3 sequence (P04274 whole entry): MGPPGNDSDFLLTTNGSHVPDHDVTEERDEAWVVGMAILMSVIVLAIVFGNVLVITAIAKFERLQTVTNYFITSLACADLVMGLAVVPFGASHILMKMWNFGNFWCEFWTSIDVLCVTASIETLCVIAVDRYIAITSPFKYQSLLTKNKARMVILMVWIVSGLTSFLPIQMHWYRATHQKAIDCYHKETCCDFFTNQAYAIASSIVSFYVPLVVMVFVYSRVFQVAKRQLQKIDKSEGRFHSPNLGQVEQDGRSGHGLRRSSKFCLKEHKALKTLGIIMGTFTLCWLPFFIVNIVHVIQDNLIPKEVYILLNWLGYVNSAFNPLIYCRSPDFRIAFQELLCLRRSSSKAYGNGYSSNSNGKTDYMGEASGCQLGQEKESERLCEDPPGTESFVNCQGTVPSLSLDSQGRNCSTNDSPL
Description: The same technique as in Example 4 can be used using a Nanobody that binds an intracellular epitope of the membrane protein. Nanobody CA2780 (amino acid sequence: SEQ ID NO:5; Nucleotide sequence: SEQ ID NO:23) is an example of a Nanobody that binds an intracellular epitope of the β2-adrenergic receptor and that stabilizes the receptor in its active conformation (Rasmussen et al., 2011, Nature 469: 175). We transformed a HEK293 cell line that has a stable inducible β2AR expression with the pCAGGSNbCA2780-plasmid (see Material and Methods section) for transient expression. This Nanobody is not fused to a secretion signal and, therefore, resides in the cytosol upon expression, to allow interaction with the intracellular side of the membrane protein. Nanobody CA2780 has a hexaHis-tag and can, therefore, be purified using Ni^2+ affinity chromatography. […] In this way we strongly enrich for the receptor fraction that is in a well-folded state, because the Nanobody can only bind the receptor when it is in its native fold. This step strongly increases homogeneity in a membrane protein sample going to f.e. crystallization trials. If necessary, a subsequent purification using anti-Rho1D4 affinity chromatography can further enrich the sample for the receptor. […]

[4] = Table 3, anti-Rho1D4 immunoreactive hCXCR4 band, average of two independent experiments
[5] = Table 3, corrected for GS115 negative control
[6] = Table 4, co-expressing clone cl1
[7] = Table 4, co-expressing clone cl2
[8] = Table 4, co-expressing clone cl3

Molecule	Fluorescent units [1, 4]	Blank corrected [1, 5]	change of hCXCR4 receptor expression upon Nb co-expression (in words) [1]	other results
NbCA4500: Nanobody directed against the extracellular side of the human CXCR4 receptor, SEQ ID NO:4, His6 tag (protein, listed as Lama glama, His6 tag) VHH: QVQLQESGGGLVQAGGSLRLSCAASGSTSGIIAMGWYRQAPGKQRELVARISSGSSTNYADSVKGRFTVSRDNAKNTVYLQMNSLKPEDTAVYYCNAVRRGYRNDYNSWGQGTQVTVSSHHHHHH	21.59 fluorescent units	18.25 fluorescent units	slight increase	–
NbCA4142: Nanobody directed against the extracellular side of the human CXCR4 receptor, SEQ ID NO:2, His6 tag (protein, listed as Lama glama, His6 tag) VHH: QVQLQESGGGLVRTGGSLRLSCAGSGSFFSINPMGWYRQAPGQQRELVATITGSGSTNYADSVKGRFTISRDNAKNTLYLQMNSLKPEDTAVYYCNAGYFDRIGRRYDRWGQGTQVTVSSHHHHHH	35.81 fluorescent units	32.47 fluorescent units	more	Fluorescent units ([1]; Table 4, control experiment): 32.76 fluorescent units; Blank corrected ([1]; Table 4, control experiment, corrected for GS115 negative control): 30.35 fluorescent units; retention of the receptor on Ni2+ affinity column via hexaHis-tagged Nanobody [2]: strong retention of the receptor
NbCA4910: negative control Nanobody which does not recognize the hCXCR4, SEQ ID NO:6 (protein, listed as Lama glama) VHH: QVQLVESGGGLVQPGGSLRLSCAASGSFRSIVSMAWYRQAPGKQRELVASSNSGGSTNYADSVKGRFTISRDNAKNTVYLQMNSLKPEDTAVYWCNVQNRLPGFDAFSGRSIAETYWGQGTQVTVSSAAAHHHHHH	–	–	no increase in the receptor expression	Blank corrected [1, 6]: 6.56 fluorescent units; Fluorescent units [1, 6]: 8.97 fluorescent units; Blank corrected [1, 7]: 17.89 fluorescent units; Fluorescent units [1, 7]: 20.30 fluorescent units; Blank corrected [1, 8]: 19.49 fluorescent units; Fluorescent units [1, 8]: 21.90 fluorescent units
NbCA2780: Nanobody that binds an intracellular epitope of the β2-adrenergic receptor and stabilizes its active conformation (Rasmussen et al., 2011), SEQ ID NO:5 (protein, listed as Lama glama) VHH: MEVQLQESGGGLVQAGGSLRLSCAASGSIFSINTMGWYRQAPGKQRELVAAIHSGGSTNYANSVKGRFTISRDNAANTVYLQMNSLKPEDTAVYYCNVKDYGAVLYEYDYWGQGTQVTVSSAAAHHHHHH	–	–	–	interaction between receptor and Nanobody (complex purified by Ni2+ affinity chromatography) [3]: strong interaction
NbCA4140: Nanobody directed against the extracellular side of the human CXCR4 receptor, SEQ ID NO:1, His6 tag (protein, listed as Lama glama, His6 tag) VHH: QVQLQESGGGLVQPGGSLRLSCAASGSIFSINAMGWYRQAPGKQRELVAAITSGGSTNYADSVKGRFTISRDNAENTVYLQMNNLKPEDTAVYSCNAEGTSGSSRYRRRYEYWGKGTQVTVSSHHHHHH	39.95 fluorescent units	36.61 fluorescent units	–	–
NbCA4143: Nanobody directed against the extracellular side of the human CXCR4 receptor, SEQ ID NO:3, His6 tag (protein, listed as Lama glama, His6 tag) VHH: QVQLQESGGGLVQPGGSLRLSCAASGFTFSSYAMSWVRQAPGKGLEWVSTINSGGRSANYADSVKGRLTISRDNAKNTLHLQMNSLKPEDTALYYCARPRSVSRNYVPLGYDYLGQGTQVTVSSHHHHHH	41.06 fluorescent units	37.72 fluorescent units	–	–
